# Test results: patent US20150344570A1 (published 2015)
# Substitutions are numbered along the chain they refer to.
# T1: FcγRIIb (human, UniProt P31994 43-217)
# T1 construct: extracellular domain; also called 2b; not shown: His tag at the C terminus
# T1 sequence (looked up): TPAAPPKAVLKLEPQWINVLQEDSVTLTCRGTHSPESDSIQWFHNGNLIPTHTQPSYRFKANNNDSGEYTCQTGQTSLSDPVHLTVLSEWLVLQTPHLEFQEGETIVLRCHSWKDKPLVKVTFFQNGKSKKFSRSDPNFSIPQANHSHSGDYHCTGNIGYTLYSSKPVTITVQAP
# T2: FcγRIIa H (human, UniProt P12318 34-217)
# T2 construct: extracellular domain; also called FcγRIIa type H; 2aH; not shown: His tag at the C terminus
# T2 sequence (looked up): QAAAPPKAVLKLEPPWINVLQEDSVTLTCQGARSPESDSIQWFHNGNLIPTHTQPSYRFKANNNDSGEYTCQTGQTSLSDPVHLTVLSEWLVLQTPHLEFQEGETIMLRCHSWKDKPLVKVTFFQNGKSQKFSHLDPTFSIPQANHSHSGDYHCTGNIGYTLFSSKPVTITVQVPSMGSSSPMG
# T3: FcγRIIa R (human, UniProt P12318 34-217)
# T3 construct: extracellular domain; also called FcgRIIa R; FcγRIIa type R; not shown: His tag at the C terminus
# T3 sequence (looked up): T2 sequence (looked up) with H134R
# T4: FcγRIIb extracellular domain with C-terminal His tag (human, UniProt P31994 43-217)
# T4 construct: extracellular domain; also called 2b; FcgRIIb
# T4 sequence (looked up): T1 sequence (looked up)
# B1: GpH7-A5/GpH7-B3 variant G237_11K/GpL16-k0 (antibody, human IgG1, kappa)
# heavy 1: not shown
# heavy 2: not shown
# light: DIVMTQSPLSLPVTPGEPASISCQASESLVHSNRNTYLHWYLQKPGQSPQLLIYKVSNRFSGVPDRFSGSGSGTDFTLKISRVEAEDVGVYYCSQNTHVPPTFGQGTKVEIERTVAAPSVFIFPPSDEQLKSGTASVVCLLNNFYPREAKVQWKVDNALQSGNSQESVTEQDSKDSTYSLSSTLTLSKADYEKHKVYACEVTHQGLSSPVTKSFNRGEC
# notes: Heterodimerized anti-glypican-3 IgG1; mutation only in the GpH7-B3 H chain; also called He Ab
# B2: GpH7-A5/GpH7-B3 variant G237_12R/GpL16-k0 (antibody, human IgG1, kappa)
# heavy 1: not shown
# heavy 2: not shown
# light: B1 light
# notes: as for B1
# B3: GpH7-A5/GpH7-B3 variant L234_19Q/GpL16-k0 (antibody, human IgG1, kappa)
# heavy 1: not shown
# heavy 2: not shown
# light: B1 light
# notes: Heterodimerized IgG1; mutation in the GpH7-B3 chain only; also called He Ab
# B4: GpH7-A5/GpH7-B3 variant L234_16H/GpL16-k0 (antibody, human IgG1, kappa)
# heavy 1: not shown
# heavy 2: not shown
# light: B1 light
# notes: as for B3
# B5: GpH7-A5/GpH7-B3 variant L235_01G/GpL16-k0 (antibody, human IgG1, kappa)
# heavy 1: not shown
# heavy 2: not shown
# light: B1 light
# notes: as for B3
# B6: GpH7-A5/GpH7-B3 variant L235_13S/GpL16-k0 (antibody, human IgG1, kappa)
# heavy 1: not shown
# heavy 2: not shown
# light: B1 light
# notes: as for B3
# B7: GpH7-A5/GpH7-B3 variant L235_19Q/GpL16-k0 (antibody, human IgG1, kappa)
# heavy 1: not shown
# heavy 2: not shown
# light: B1 light
# notes: as for B3
# B8: GpH7-A5/GpH7-B3 variant L235_03V/GpL16-k0 (antibody, human IgG1, kappa)
# heavy 1: not shown
# heavy 2: not shown
# light: B1 light
# notes: as for B3
# B9: GpH7-A5/GpH7-B3 variant L235_18N/GpL16-k0 (antibody, human IgG1, kappa)
# heavy 1: not shown
# heavy 2: not shown
# light: B1 light
# notes: as for B3
# B10: GpH7-A5/GpH7-B3 variant L235_14T/GpL16-k0 (antibody, human IgG1, kappa)
# heavy 1: not shown
# heavy 2: not shown
# light: B1 light
# notes: as for B3
# B11: GpH7-A5/GpH7-B3 variant L235_11K/GpL16-k0 (antibody, human IgG1, kappa)
# heavy 1: not shown
# heavy 2: not shown
# light: B1 light
# notes: as for B3
# B12: GpH7-A5/GpH7-B3 variant G237_12R/GpL16-k0 (antibody, human IgG1, kappa)
# heavy 1: not shown
# heavy 2: not shown
# light: B1 light
# notes: Heterodimerized anti-glypican-3 IgG1; mutation in one H chain only; also called He Ab
# B13: GpH7-A5/GpH7-B3 variant G237_11K/GpL16-k0 (antibody, human IgG1, kappa)
# heavy 1: not shown
# heavy 2: not shown
# light: B1 light
# notes: as for B12
# B14: GpH7-A5/GpH7-B3 variant G236_04F/GpL16-k0 (antibody, human IgG1, kappa)
# heavy 1: not shown
# heavy 2: not shown
# light: B1 light
# notes: also called He Ab
# B15: GpH7-A5/GpH7-B3 variant G236_07I/GpL16-k0 (antibody, human IgG1, kappa)
# heavy 1: not shown
# heavy 2: not shown
# light: B1 light
# notes: also called He Ab
# B16: GpH7-A5/GpH7-B3 variant G236_20W/GpL16-k0 (antibody, human IgG1, kappa)
# heavy 1: not shown
# heavy 2: not shown
# light: B1 light
# notes: also called He Ab; GpH7-A5/GpH7-B3-03-20W/GpL16-k0
# B17: GpH7-A5/GpH7-B3 variant H268_06M/GpL16-k0 (antibody, human IgG1, kappa)
# heavy 1: not shown
# heavy 2: not shown
# light: B1 light
# notes: also called He Ab
# B18: GpH7-A5/GpH7-B3 variant E269_01G/GpL16-k0 (antibody, human IgG1, kappa)
# heavy 1: not shown
# heavy 2: not shown
# light: B1 light
# notes: also called He Ab
# B19: GpH7-A5/GpH7-B3 variant G236_03V/GpL16-k0 (antibody, human IgG1, kappa)
# heavy 1: not shown
# heavy 2: not shown
# light: B1 light
# notes: also called He Ab
# B20: GpH7-A5/GpH7-B3 variant G236_15Y/GpL16-k0 (antibody, human IgG1, kappa)
# heavy 1: not shown
# heavy 2: not shown
# light: B1 light
# notes: also called He Ab
# B21: GpH7-A5/GpH7-B3 variant L234_05P/GpL16-k0 (antibody, human IgG1, kappa)
# heavy 1: not shown
# heavy 2: not shown
# light: B1 light
# notes: also called He Ab
# B22: GpH7-A5/GpH7-B3 variant G236_16H/GpL16-k0 (antibody, human IgG1, kappa)
# heavy 1: not shown
# heavy 2: not shown
# light: B1 light
# notes: also called He Ab
# B23: GpH7-A5/GpH7-B3 variant G236_08L/GpL16-k0 (antibody, human IgG1, kappa)
# heavy 1: not shown
# heavy 2: not shown
# light: B1 light
# notes: also called He Ab
# B24: GpH7-A5/GpH7-B3 variant L234_07I/GpL16-k0 (antibody, human IgG1, kappa)
# heavy 1: not shown
# heavy 2: not shown
# light: B1 light
# notes: also called He Ab
# B25: GpH7-A5/GpH7-B3 variant G236_05P/GpL16-k0 (antibody, human IgG1, kappa)
# heavy 1: not shown
# heavy 2: not shown
# light: B1 light
# notes: also called He Ab
# B26: GpH7-A5/GpH7-B3 variant G236_12R/GpL16-k0 (antibody, human IgG1, kappa)
# heavy 1: not shown
# heavy 2: not shown
# light: B1 light
# notes: also called He Ab
# B27: GpH7-A5/GpH7-B3 variant E269_02A/GpL16-k0 (antibody, human IgG1, kappa)
# heavy 1: not shown
# heavy 2: not shown
# light: B1 light
# notes: also called He Ab
# B28: GpH7-A5/GpH7-B3 variant L234_03V/GpL16-k0 (antibody, human IgG1, kappa)
# heavy 1: not shown
# heavy 2: not shown
# light: B1 light
# notes: also called He Ab
# B29: GpH7-A5/GpH7-B3 variant L235_12R/GpL16-k0 (antibody, human IgG1, kappa)
# heavy 1: not shown
# heavy 2: not shown
# light: B1 light
# notes: also called He Ab
# Target: T5, FcγRIa extracellular domain with C-terminal His tag (human, UniProt P12314 16-292)
# T5 construct: extracellular domain; also called FcgRI; CD64; not shown: His tag at the C terminus
# Assay: SPR; He/Con_1a divided by He/Con_2b (FcγRIa against FcγRIIb)
# T5 sequence (P12314 16-292): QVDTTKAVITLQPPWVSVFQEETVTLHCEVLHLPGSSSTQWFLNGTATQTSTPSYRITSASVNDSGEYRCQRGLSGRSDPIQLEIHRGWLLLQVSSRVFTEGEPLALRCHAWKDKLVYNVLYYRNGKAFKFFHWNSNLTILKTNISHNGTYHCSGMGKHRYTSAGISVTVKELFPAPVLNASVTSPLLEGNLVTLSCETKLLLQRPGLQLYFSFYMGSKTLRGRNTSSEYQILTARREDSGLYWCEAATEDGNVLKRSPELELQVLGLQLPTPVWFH
row,He_1a/2b (Ia/IIb),Binder
1,7.05 ratio,B1
2,6.71 ratio,B2

# Target: T1, FcγRIIb
# Assay: SPR (Biacore), antibody captured, FcγR as analyte; binding relative to GpH7-A5/GpH7-B3/GpL16-k0 = 100
row,He/Con_2b,Binder
1,60.3 % of control,B3
2,59.4 % of control,B4
3,35.4 % of control,B5
4,48.2 % of control,B6
5,42.6 % of control,B7
6,66.4 % of control,B8
7,54.9 % of control,B9
8,46.8 % of control,B10
9,6.3 % of control,B11

# Target: T2, FcγRIIa H
# Assay: as above
row,He/Con_2aH,Binder
1,79.2 % of control,B3
2,87.3 % of control,B4
3,54.1 % of control,B5
4,66.1 % of control,B6
5,62 % of control,B7
6,85.3 % of control,B8
7,66.1 % of control,B9
8,71.5 % of control,B10
9,22.7 % of control,B11

# Target: T3, FcγRIIa R
# Assay: SPR (Biacore T100), antibody captured on antigen peptide chip, FcγR as analyte; binding relative to GpH7-A5/GpH7-B3/GpL16-k0 = 100
# Experimental: (§1) The heterodimerized antibodies He Abs in which one of the H chains was introduced with an alteration were assayed for their binding activities to each activating FcγR and inhibitory FcγR according to the method described in Example 4. […] The activating FcγRs in FIGS. 26, 27, 28, and 29 are FcγRIa, FcγRIIa (R), FcγRIIa (H), and FcγRIIIa, respectively.
# (§2) Analysis of interaction between objective antibody and the FcγR was carried out using Biacore T100 (GE Healthcare). HBS-EP+ (GE Healthcare) was used as the running buffer, and the measurement temperature was set to 25° C. Chips produced by immobilizing the antigen peptide by the amine coupling method to a Series S Sencor Chip CM5 (GE Healthcare), or alternatively, chips produced by allowing preliminarily biotinylated antigen peptides to interact with and immobilize onto a Series S Sensor Chip SA (certified) (GE Healthcare) were used. Antibodies of interest were captured onto an antigen peptide-immobilized chip, and allowed to interact to each FcγR diluted with running buffer. To regenerate and repeatedly use the chip, the antibodies captured on the chip were washed off by reacting 10 mM glycine-HCl, pH 1.5.
row,He/Con_2aR (IIaR binding),Binder
1,24.2 % of control,B12
2,17.1 % of control,B13

# Target: T6, FcγRIIIa extracellular domain with C-terminal His tag (human, UniProt P08637 17-208)
# T6 construct: extracellular domain; also called 3a; FcgRIIIa
# Assay: SPR; ratio of He/Con_3a (FcγRIIIa) to He/Con_2b (FcγRIIb)
# Experimental: as §1, §2
# T6 sequence (P08637 17-208): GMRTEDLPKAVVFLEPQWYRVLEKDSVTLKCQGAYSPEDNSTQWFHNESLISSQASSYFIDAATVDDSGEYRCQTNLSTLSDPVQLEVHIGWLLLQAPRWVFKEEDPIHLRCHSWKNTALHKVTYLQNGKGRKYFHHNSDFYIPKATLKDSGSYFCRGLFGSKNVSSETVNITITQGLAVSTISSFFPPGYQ
row,He_3a/2b (IIIa/IIb),Binder
1,2.21,B14
2,1.93,B15
3,2.33,B16
4,1.22,B17
5,1.21,B18
6,1.64,B19
7,3.06,B20
8,1.21,B21
9,1.54,B22
10,1.21,B23
11,1.27,B24
12,1.95,B25
13,1.84,B26
14,1.38,B27
15,1.25,B28
16,4.29,B29

# Target: T2, FcγRIIa H
# Assay: SPR (Biacore); He/Con_2aH divided by He/Con_2b (FcγRIIa H over FcγRIIb)
row,He_2aH/2b (IIaH/IIb),Binder
1,1.31 ratio,B3
2,1.47 ratio,B4
3,1.53 ratio,B5
4,1.37 ratio,B6
5,1.45 ratio,B7
6,1.28 ratio,B8
7,1.2 ratio,B9
8,1.53 ratio,B10
9,3.61 ratio,B11

# Target: T5, FcγRIa extracellular domain with …
# Assay: SPR (Biacore), antibody captured, FcγR analyte; relative to GpH7-A5/GpH7-B3/GpL16-k0 = 100
row,He/Con_1a,Binder
1,63.3 % of HeCon Ab,B1
2,65.8 % of HeCon Ab,B2

# Target: T4, FcγRIIb extracellular domain with …
# Assay: SPR, binding relative to GpH7-A5/GpH7-B3/GpL16-k0 = 100
row,He/Con_2b,Binder
1,39.3 % of control,B14
2,31 % of control,B15
3,58.2 % of control,B16
4,65.7 % of control,B17
5,51.5 % of control,B18
6,35.3 % of control,B19
7,39.5 % of control,B20
8,72.9 % of control,B21
9,27.9 % of control,B22
10,26.8 % of control,B23
11,80.9 % of control,B24
12,19 % of control,B25
13,6.8 % of control,B26
14,49.9 % of control,B27
15,73.1 % of control,B28

# Target: T6, FcγRIIIa extracellular domain with …
# Assay: as above
row,He/Con_3a,Binder
1,87 % of control,B14
2,59.7 % of control,B15
3,135 % of control,B16
4,80.3 % of control,B17
5,62.2 % of control,B18
6,57.7 % of control,B19
7,121 % of control,B20
8,88.1 % of control,B21
9,43.1 % of control,B22
10,32.5 % of control,B23
11,103 % of control,B24
12,37.1 % of control,B25
13,12.5 % of control,B26
14,68.7 % of control,B27
15,91.4 % of control,B28
16,41.2 % of control,B29

# Target: T3, FcγRIIa R
# Assay: SPR (Biacore T100); He/Con_2aR divided by He/Con_2b (FcγRIIa R over FcγRIIb)
# Experimental: as §1, §2
row,He_2aR/2b (IIaR/IIb),Binder
1,2.47 ratio,B12
2,1.9 ratio,B13
